# Results taken from the supplement of paper PMC9112550, “Optimization of the antimicrobial peptide Bac7 by deep mutational scanning” (BMC Biology, 2022).
# Tested on: Escherichia coli TOP10
# Assay: shrunken log2 fold change of peptide-encoding DNA abundance (4.5 h post-induction vs induction); higher = less antimicrobial activity (less host growth inhibition)
# Conditions: time post-induction: 4.5 h; library: site-saturation at positions 5, 18, 19, 20
# 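Also: peptides expressed intracellularly from a pBAD plasmid library in pooled LB shake-flask culture, induced with 0.3% L-arabinose, DNA abundance read by NGS, three biological replicates, DESeq2 with apeglm shrinkage.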
row,Sequence,shrunken log2 fold change
1,RRIRRRPPRLPRPRPRPGMKPRP,-0.133
2,RRIRDRPPRLPRPRPRPYNCPRP,-0.0352
3,RRIRTRPPRLPRPRPRPQEPPRP,-0.0583
4,RRIRRRPPRLPRPRPRPETSPRP,0.4
5,RRIRSRPPRLPRPRPRPILRPRP,-0.0847
6,RRIRTRPPRLPRPRPRPNMIPRP,-0.277
7,RRIRKRPPRLPRPRPRPILWPRP,0.149
8,RRIRKRPPRLPRPRPRPFVVPRP,-0.00719
9,RRIRARPPRLPRPRPRPMISPRP,0.501
10,RRIRRRPPRLPRPRPRPTKYPRP,-0.198
11,RRIRKRPPRLPRPRPRPRDSPRP,0.262
12,RRIRFRPPRLPRPRPRPGRLPRP,0.262
13,RRIRWRPPRLPRPRPRPFNTPRP,-0.0751
14,RRIRLRPPRLPRPRPRPFSAPRP,-0.177
15,RRIRSRPPRLPRPRPRPHWSPRP,-0.0455
16,RRIRTRPPRLPRPRPRPNWFPRP,-0.157
17,RRIRRRPPRLPRPRPRPYYNPRP,-0.807
18,RRIRDRPPRLPRPRPRPAGPPRP,0.271
19,RRIRWRPPRLPRPRPRPRQLPRP,-0.0051
20,RRIRPRPPRLPRPRPRPGMQPRP,0.515

row,Sequence,shrunken log2 fold change
1,RRIRMRPPRLPRPRPRPEHPPRP,0.75
2,RRIRSRPPRLPRPRPRPQTHPRP,0.901
3,RRIRNRPPRLPRPRPRPLTKPRP,0.164
4,RRIRDRPPRLPRPRPRPYTDPRP,0.0446
5,RRIRYRPPRLPRPRPRPNYVPRP,-0.466
6,RRIRRRPPRLPRPRPRPRTDPRP,0.438
7,RRIRYRPPRLPRPRPRPMPFPRP,0.00489
8,RRIRWRPPRLPRPRPRPCFYPRP,-0.249
9,RRIRQRPPRLPRPRPRPFNNPRP,-0.476
10,RRIRLRPPRLPRPRPRPIQLPRP,-0.235
11,RRIRERPPRLPRPRPRPKPEPRP,0.12
12,RRIRCRPPRLPRPRPRPGHEPRP,0.00505
13,RRIRMRPPRLPRPRPRPFQNPRP,2.76
14,RRIRQRPPRLPRPRPRPPQNPRP,0.663
15,RRIRARPPRLPRPRPRPKTFPRP,-0.0543
16,RRIRWRPPRLPRPRPRPDTIPRP,-0.019
17,RRIRTRPPRLPRPRPRPPYTPRP,-0.397
18,RRIRIRPPRLPRPRPRPPQSPRP,0.0652
19,RRIRARPPRLPRPRPRPAGGPRP,0.678
20,RRIRVRPPRLPRPRPRPQHDPRP,-0.0871

row,Sequence,shrunken log2 fold change
1,RRIRDRPPRLPRPRPRPVVCPRP,0.26
2,RRIRKRPPRLPRPRPRPSSTPRP,-0.151
3,RRIRCRPPRLPRPRPRPHYNPRP,-1.32
4,RRIRFRPPRLPRPRPRPLFDPRP,-0.578
5,RRIRCRPPRLPRPRPRPMPIPRP,-0.197
6,RRIRTRPPRLPRPRPRPTQGPRP,0.358
7,RRIRQRPPRLPRPRPRPIPVPRP,-0.221
8,RRIRLRPPRLPRPRPRPYDEPRP,-0.353
9,RRIRNRPPRLPRPRPRPKDYPRP,-0.232
10,RRIRFRPPRLPRPRPRPVCMPRP,-0.498
11,RRIRGRPPRLPRPRPRPLLDPRP,2.07
12,RRIRKRPPRLPRPRPRPDWSPRP,0.0357
13,RRIRQRPPRLPRPRPRPAWYPRP,-0.0125
14,RRIRFRPPRLPRPRPRPLPEPRP,0.224
15,RRIRMRPPRLPRPRPRPNYKPRP,-0.504
16,RRIRTRPPRLPRPRPRPGKNPRP,-0.24
17,RRIRFRPPRLPRPRPRPWYTPRP,-0.38
18,RRIRVRPPRLPRPRPRPEFNPRP,0.203
19,RRIRYRPPRLPRPRPRPGTIPRP,0.137
20,RRIRTRPPRLPRPRPRPAHYPRP,-0.227
